Measurements taken from PMC9352680, “A comprehensive thermodynamic model for RNA binding by the Saccharomyces cerevisiae Pumilio protein PUF4”.

T1: PUF4 RNA-binding domain (Saccharomyces cerevisiae, UniProt P25339 537-888)
T1 sequence: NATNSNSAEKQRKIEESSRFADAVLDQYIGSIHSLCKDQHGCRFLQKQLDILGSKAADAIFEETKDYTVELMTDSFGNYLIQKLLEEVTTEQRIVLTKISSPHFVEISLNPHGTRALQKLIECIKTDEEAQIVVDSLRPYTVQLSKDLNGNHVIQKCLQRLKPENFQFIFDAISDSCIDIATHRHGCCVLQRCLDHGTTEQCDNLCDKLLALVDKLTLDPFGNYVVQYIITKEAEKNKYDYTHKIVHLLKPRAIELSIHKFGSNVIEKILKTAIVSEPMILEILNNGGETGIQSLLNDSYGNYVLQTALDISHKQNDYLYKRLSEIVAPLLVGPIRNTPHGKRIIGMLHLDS


Target: T1, PUF4 RNA-binding domain
Test: Mg; RNA-MaP; 20 mM Na-HEPES pH 7.4, 30 mM KOAc, 0.75 mM MgCl2, 0.1% Tween-20, 5% glycerol, 0.1 mg/mL BSA, 2 mM DTT; 25 C; 0.0125-409.6 nM protein
Conditions: tags: N-His6-TEV cleaved; C-SNAP kept, Cy3B-labelled; label: tethered on chip by stalled RNA polymerase

Binder | Kd [nM]
Ic_S4_P4E.1_K4.1_C4.1_H4.1_A4.1_[T5A]_[A6C]_[T7G]_F4.1_[T8C]_[A9T]_T4.1 (ssRNA) RNA: UUUGACAACUGAUCGUUCUUUCUUGUAACGCUUUCUUUCUCGAUCAGUUGUCUUU | 205
Ic_S4_P4E.1_K4.1_C4.1_H4.1_A4.1_[T5A]_[A6C]_[T7G]_F4.1_[A9C]_T4.1 (ssRNA) RNA: UUUGACAACUGAUCGUUCUUUCUUGUAACGUCUUCUUUCUCGAUCAGUUGUCUUU | 919
Ic_S4_P4E.1_K4.1_C4.1_H4.1_A4.1_[T5A]_[A6C]_[T7G]_F4.1_[A9T]_T4.1 (ssRNA) RNA: UUUGACAACUGAUCGUUCUUUCUUGUAACGUUUUCUUUCUCGAUCAGUUGUCUUU | 84.3
Ic_S4_P4E.1_K4.1_C4.1_H4.1_A4.1_[T5A]_[A6C]_[T7G]_F4.1_T4.1 (ssRNA) RNA: UUUGACAACUGAUCGUUCUUUCUUGUAACGUAUUCUUUCUCGAUCAGUUGUCUUU | 14.5
Ic_S4_P4E.1_K4.1_C4.1_H4.1_A4.1_[T5A]_[A6C]_[T7C]_F4.1_[T8G]_[A9C]_T4.1 (ssRNA) RNA: UUUGACAACUGAUCGUUCUUUCUUGUAACCGCUUCUUUCUCGAUCAGUUGUCUUU | 927
Ic_S4_P4E.1_K4.1_C4.1_H4.1_A4.1_[T5A]_[A6C]_[T7C]_F4.1_[T8C]_[A9T]_T4.1 (ssRNA) RNA: UUUGACAACUGAUCGUUCUUUCUUGUAACCCUUUCUUUCUCGAUCAGUUGUCUUU | 225
Ic_S4_P4E.1_K4.1_C4.1_H4.1_A4.1_[T5A]_[A6C]_[T7C]_F4.1_[A9G]_T4.1 (ssRNA) RNA: UUUGACAACUGAUCGUUCUUUCUUGUAACCUGUUCUUUCUCGAUCAGUUGUCUUU | 44.1
Ic_S4_P4E.1_K4.1_C4.1_H4.1_A4.1_[T5A]_[A6C]_[T7C]_F4.1_[A9T]_T4.1 (ssRNA) RNA: UUUGACAACUGAUCGUUCUUUCUUGUAACCUUUUCUUUCUCGAUCAGUUGUCUUU | 31.1
UCUCUUUGUAUCUCAUCUCUU (ssRNA) [Ib_S1_P4E.1_K4.1_C4.1_H4.1_A4.1_[A6C]_F4.1_[T8C]_T4.1] | 34.6
Ic_S4_P4E.1_K4.1_C4.1_H4.1_A4.1_[T5A]_[A6C]_[T7C]_F4.1_T4.1 (ssRNA) RNA: UUUGACAACUGAUCGUUCUUUCUUGUAACCUAUUCUUUCUCGAUCAGUUGUCUUU | 5.74
Ic_S4_P4E.1_K4.1_C4.1_H4.1_A4.1_[T5A]_[A6C]_[T7A]_F4.1_[T8G]_[A9C]_T4.1 (ssRNA) RNA: UUUGACAACUGAUCGUUCUUUCUUGUAACAGCUUCUUUCUCGAUCAGUUGUCUUU | 879
Ic_S4_P4E.1_K4.1_C4.1_H4.1_A4.1_[T5A]_[A6C]_[T7A]_F4.1_[T8G]_[A9T]_T4.1 (ssRNA) RNA: UUUGACAACUGAUCGUUCUUUCUUGUAACAGUUUCUUUCUCGAUCAGUUGUCUUU | 604
Ic_S4_P4E.1_K4.1_C4.1_H4.1_A4.1_[T5A]_[A6C]_[T7A]_F4.1_[T8C]_[A9C]_T4.1 (ssRNA) RNA: UUUGACAACUGAUCGUUCUUUCUUGUAACACCUUCUUUCUCGAUCAGUUGUCUUU | 215
Ic_S4_P4E.1_K4.1_C4.1_H4.1_A4.1_[T5A]_[A6C]_[T7A]_F4.1_[T8A]_[A9C]_T4.1 (ssRNA) RNA: UUUGACAACUGAUCGUUCUUUCUUGUAACAACUUCUUUCUCGAUCAGUUGUCUUU | 1050
Ic_S4_P4E.1_K4.1_C4.1_H4.1_A4.1_[T5A]_[A6C]_[T7A]_F4.1_[A9C]_T4.1 (ssRNA) RNA: UUUGACAACUGAUCGUUCUUUCUUGUAACAUCUUCUUUCUCGAUCAGUUGUCUUU | 22.5
Ic_S4_P4E.1_K4.1_C4.1_H4.1_A4.1_[T5A]_[A6C]_[T7A]_F4.1_T4.1 (ssRNA) RNA: UUUGACAACUGAUCGUUCUUUCUUGUAACAUAUUCUUUCUCGAUCAGUUGUCUUU | 1.34
Ic_S4_P4E.1_K4.1_C4.1_H4.1_A4.1_[T5A]_[A6C]_F4.1_[T8G]_[A9T]_T4.1 (ssRNA) RNA: UUUGACAACUGAUCGUUCUUUCUUGUAACUGUUUCUUUCUCGAUCAGUUGUCUUU | 95.2
Ic_S4_P4E.1_K4.1_C4.1_H4.1_A4.1_[T5A]_[A6C]_F4.1_[T8C]_[A9G]_T4.1 (ssRNA) RNA: UUUGACAACUGAUCGUUCUUUCUUGUAACUCGUUCUUUCUCGAUCAGUUGUCUUU | 577
Ic_S4_P4E.1_K4.1_C4.1_H4.1_A4.1_[T5A]_[A6C]_F4.1_[T8C]_[A9T]_T4.1 (ssRNA) RNA: UUUGACAACUGAUCGUUCUUUCUUGUAACUCUUUCUUUCUCGAUCAGUUGUCUUU | 72
UCUCUUUGUAUAUGUCUCUU (ssRNA) [Ia_S1_P3E.1_K3.1_C3.1_H3.1_A3.1_F3.1_[A8G]_T3.1] | 17
UCUCUUUGUCUAUUAUCUCUU (ssRNA) [Ia_S1_P4E.1_K4.1_C4.1_H4.1_[A4C]_A4.1_F4.1_T4.1] | 12.7
UCUCUUUGUAUUUCAUCUCUU (ssRNA) [Ib_S1_P4E.1_K4.1_C4.1_H4.1_A4.1_[A6T]_F4.1_[T8C]_T4.1] | 69.6
Ic_S4_P4E.1_K4.1_C4.1_H4.1_A4.1_[T5A]_[A6C]_F4.1_[T8C]_T4.1 (ssRNA) RNA: UUUGACAACUGAUCGUUCUUUCUUGUAACUCAUUCUUUCUCGAUCAGUUGUCUUU | 281
Ic_S4_P4E.1_K4.1_C4.1_H4.1_A4.1_[T5A]_[A6C]_F4.1_[T8A]_[A9G]_T4.1 (ssRNA) RNA: UUUGACAACUGAUCGUUCUUUCUUGUAACUAGUUCUUUCUCGAUCAGUUGUCUUU | 653
Ic_S4_P4E.1_K4.1_C4.1_H4.1_A4.1_[T5A]_[A6C]_F4.1_[T8A]_[A9C]_T4.1 (ssRNA) RNA: UUUGACAACUGAUCGUUCUUUCUUGUAACUACUUCUUUCUCGAUCAGUUGUCUUU | 287
